In this experiment the target is extracellular region of the human tumor antigen c-erbB-2 (human) (UniProt P04626). Description: method not given.

As a reminder, the Kd is the equilibrium constant for the complex coming apart. High values mean a looser complex, low ones a tighter complex. Consider scFv C6.5, for which the Kd worked out at 160 pM.
